# Measurements as given in patent US7314753.
# Assays:
# [1] = biological target: CEA (carcino-embryonic antigen) (UniProt P06731); test: enzyme activity specificity test, CEA-coated plate; pH 5.0 eluate 1:3, dilution 1:2
# [2] = biological target: CEA (carcino-embryonic antigen) (UniProt P06731); test: enzyme activity specificity test, CEA-coated plate; pH 5.0 eluate 1:3, dilution 1:4
# [3] = biological target: CEA (carcino-embryonic antigen) (UniProt P06731); test: enzyme activity specificity test, CEA-coated plate; pH 5.0 eluate 1:3, dilution 1:8
# [4] = biological target: CEA (carcino-embryonic antigen) (UniProt P06731); test: enzyme activity specificity test, CEA-coated plate; pH 5.0 eluate 1:3, dilution 1:16
# [5] = biological target: CEA (carcino-embryonic antigen) (UniProt P06731); test: enzyme activity specificity test, CEA-coated plate; pH 5.0 eluate 1:3, dilution 1:32
# [6] = biological target: CEA (carcino-embryonic antigen) (UniProt P06731); test: enzyme activity specificity test, CEA-coated plate; pH 5.0 eluate 1:3, dilution 1:64
# [7] = biological target: CEA (carcino-embryonic antigen) (UniProt P06731); test: enzyme activity specificity test, CEA-coated plate; pH 5.0 eluate 1:3, dilution 1:128
# [8] = biological target: CEA (carcino-embryonic antigen) (UniProt P06731); test: enzyme activity specificity test, CEA-coated plate; pH 5.0 eluate 1:3, dilution 1:256
# [9] = biological target: CEA (carcino-embryonic antigen) (UniProt P06731); test: enzyme activity specificity test, CEA-coated plate; disrupted cell suspension 1:3, dilution 1:2
# [10] = biological target: CEA (carcino-embryonic antigen) (UniProt P06731); test: enzyme activity specificity test, CEA-coated plate; disrupted cell suspension 1:3, dilution 1:4
# [11] = biological target: CEA (carcino-embryonic antigen) (UniProt P06731); test: enzyme activity specificity test, CEA-coated plate; disrupted cell suspension 1:3, dilution 1:8
# [12] = biological target: CEA (carcino-embryonic antigen) (UniProt P06731); test: enzyme activity specificity test, CEA-coated plate; disrupted cell suspension 1:3, dilution 1:16
# [13] = biological target: CEA (carcino-embryonic antigen) (UniProt P06731); test: enzyme activity specificity test, CEA-coated plate; disrupted cell suspension 1:3, dilution 1:32
# [14] = biological target: CEA (carcino-embryonic antigen) (UniProt P06731); test: enzyme activity specificity test, CEA-coated plate; disrupted cell suspension 1:3, dilution 1:64
# [15] = biological target: CEA (carcino-embryonic antigen) (UniProt P06731); test: enzyme activity specificity test, CEA-coated plate; disrupted cell suspension 1:3, dilution 1:128
# [16] = biological target: CEA (carcino-embryonic antigen) (UniProt P06731); test: enzyme activity specificity test, CEA-coated plate; disrupted cell suspension 1:3, dilution 1:256
# [17] = biological target: CEA (carcino-embryonic antigen) (UniProt P06731); test: enzyme activity specificity test, CEA-coated plate; pH 5.0 eluate ultrafiltrate 1:1, dilution 1:2
# [18] = biological target: CEA (carcino-embryonic antigen) (UniProt P06731); test: enzyme activity specificity test, CEA-coated plate; pH 5.0 eluate ultrafiltrate 1:1, dilution 1:4
# [19] = biological target: CEA (carcino-embryonic antigen) (UniProt P06731); test: enzyme activity specificity test, CEA-coated plate; pH 5.0 eluate ultrafiltrate 1:1, dilution 1:8
# [20] = biological target: CEA (carcino-embryonic antigen) (UniProt P06731); test: enzyme activity specificity test, CEA-coated plate; pH 5.0 eluate ultrafiltrate 1:1, dilution 1:16
# [21] = biological target: CEA (carcino-embryonic antigen) (UniProt P06731); test: enzyme activity specificity test, CEA-coated plate; pH 5.0 eluate ultrafiltrate 1:1, dilution 1:32
# [22] = biological target: CEA (carcino-embryonic antigen) (UniProt P06731); test: enzyme activity specificity test, CEA-coated plate; pH 5.0 eluate ultrafiltrate 1:1, dilution 1:64
# [23] = biological target: CEA (carcino-embryonic antigen) (UniProt P06731); test: enzyme activity specificity test, CEA-coated plate; pH 5.0 eluate ultrafiltrate 1:1, dilution 1:128
# [24] = biological target: CEA (carcino-embryonic antigen) (UniProt P06731); test: enzyme activity specificity test, CEA-coated plate; pH 5.0 eluate ultrafiltrate 1:1, dilution 1:256
# [25] = biological target: CEA (carcino-embryonic antigen) (UniProt P06731); test: enzyme activity specificity test, CEA-coated plate; void volume of affinity column 1:1, dilution 1:2
# [26] = biological target: CEA (carcino-embryonic antigen) (UniProt P06731); test: enzyme activity specificity test, CEA-coated plate; void volume of affinity column 1:1, dilution 1:4
# [27] = biological target: CEA (carcino-embryonic antigen) (UniProt P06731); test: enzyme activity specificity test, CEA-coated plate; void volume of affinity column 1:1, dilution 1:8
# [28] = biological target: CEA (carcino-embryonic antigen) (UniProt P06731); test: enzyme activity specificity test, CEA-coated plate; pH 5.0 eluate ultraconcentrate 1:10, dilution 1:2
# [29] = biological target: CEA (carcino-embryonic antigen) (UniProt P06731); test: enzyme activity specificity test, CEA-coated plate; pH 5.0 eluate ultraconcentrate 1:10, dilution 1:4
# [30] = biological target: CEA (carcino-embryonic antigen) (UniProt P06731); test: enzyme activity specificity test, CEA-coated plate; pH 5.0 eluate ultraconcentrate 1:10, dilution 1:8
# [31] = biological target: CEA (carcino-embryonic antigen) (UniProt P06731); test: enzyme activity specificity test, CEA-coated plate; void volume of affinity column 1:1, dilution 1:16
# [32] = biological target: CEA (carcino-embryonic antigen) (UniProt P06731); test: enzyme activity specificity test, CEA-coated plate; void volume of affinity column 1:1, dilution 1:32
# [33] = biological target: CEA (carcino-embryonic antigen) (UniProt P06731); test: enzyme activity specificity test, CEA-coated plate; void volume of affinity column 1:1, dilution 1:64
# [34] = biological target: CEA (carcino-embryonic antigen) (UniProt P06731); test: enzyme activity specificity test, CEA-coated plate; pH 5.0 eluate ultraconcentrate 1:10, dilution 1:16
# [35] = biological target: CEA (carcino-embryonic antigen) (UniProt P06731); test: enzyme activity specificity test, CEA-coated plate; pH 5.0 eluate ultraconcentrate 1:10, dilution 1:32
# [36] = biological target: CEA (carcino-embryonic antigen) (UniProt P06731); test: enzyme activity specificity test, CEA-coated plate; pH 5.0 eluate ultraconcentrate 1:10, dilution 1:64
# [37] = biological target: CEA (carcino-embryonic antigen) (UniProt P06731); test: enzyme activity specificity test, CEA-coated plate; void volume of affinity column 1:1, dilution 1:128
# [38] = biological target: CEA (carcino-embryonic antigen) (UniProt P06731); test: enzyme activity specificity test, CEA-coated plate; void volume of affinity column 1:1, dilution 1:256
# [39] = biological target: CEA (carcino-embryonic antigen) (UniProt P06731); test: enzyme activity specificity test, CEA-coated plate; pH 5.0 eluate ultraconcentrate 1:10, dilution 1:128
# [40] = biological target: CEA (carcino-embryonic antigen) (UniProt P06731); test: enzyme activity specificity test, CEA-coated plate; pH 5.0 eluate ultraconcentrate 1:10, dilution 1:256
# Chain of UniProt P06731 (P06731 35-685 limits assumed): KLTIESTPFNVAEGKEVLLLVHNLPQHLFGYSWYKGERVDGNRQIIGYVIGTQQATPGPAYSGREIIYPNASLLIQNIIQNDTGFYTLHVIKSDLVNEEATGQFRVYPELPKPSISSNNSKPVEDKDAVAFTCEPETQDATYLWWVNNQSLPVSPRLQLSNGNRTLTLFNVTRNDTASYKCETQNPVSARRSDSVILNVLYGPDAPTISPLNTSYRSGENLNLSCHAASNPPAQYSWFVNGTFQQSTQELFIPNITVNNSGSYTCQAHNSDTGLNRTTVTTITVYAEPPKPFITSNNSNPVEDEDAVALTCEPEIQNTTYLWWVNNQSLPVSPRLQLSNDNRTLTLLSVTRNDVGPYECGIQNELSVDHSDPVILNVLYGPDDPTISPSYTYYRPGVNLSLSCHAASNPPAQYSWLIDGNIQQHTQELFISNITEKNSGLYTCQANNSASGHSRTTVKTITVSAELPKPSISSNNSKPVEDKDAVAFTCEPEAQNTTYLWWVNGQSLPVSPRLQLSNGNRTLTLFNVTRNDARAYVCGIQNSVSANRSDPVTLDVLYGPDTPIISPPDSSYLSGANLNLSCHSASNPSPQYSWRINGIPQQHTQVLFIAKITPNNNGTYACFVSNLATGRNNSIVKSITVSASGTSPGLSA
binder,measurement,setting,value
Fab BW 431/26-E. coli β-glucuronidase fusion protein (protein) heavy: MEVQLQESGPGLVRPSQTLSLTCTVSGFTISSGYSWHWVRQPPGRGLEWIGYIQYSGITNYNPSLKSRVTMLVDTSKNQFSLRLSSVTAADTAVYYCAREDYDYHWYFDVWGQGSLVTVTVSSASTKGPSVFPLAPCSRSTSGGTAALGCLVKDYFPEPVTVSWNSGALTSGVHTFPAVLQSSGLYSLSSVVTVPSSSLGTQTYTCNVNHKPSNTKVDKRVELGSGSGSMVRPVETPTREIKKLDGLWAFSLDRENCGIDQRWWESALQESRAIAVPGSFNDQFADADIRNYAGNVWYQREVFIPKGWAGQRIVLRFDAVTHYGKVWVNNQEVMEHQGGYTPFEADVTPYVIAGKSVRITVCVNNELNWQTIPPGMVITDENGKKKQSYFHNFFNYAGIHRSVMLYTTPNTWVDDITVVTHVAQDCNHASVDWQVVANGDVSVELRDADQQVVATGQGTSGTLQVVNPHLWQPGEGYLYELCVTAKSQTECDIYPLRVGIRSVAVKGEQFLINHKPFYFTGFGRHEDADLRGKGFDNVLMVHDHALMDWIGANSYRTSHYPYAEEMLDWADEHGIVVIDETAAVGFNLSLGIGFEAGNKPKELYSEEAVNGETQQAHLQAIKELIARDKNHPSVVMWSIANEPDTRPQGAREYFAPLAEATRKLDPTRPITCVNVMFCDAHTDTISDLFDVLCLNRYYGWYVQSGDLETAEKVLEKELLAWQEKLHQPIIITEYGVDTLAGLHSMYTDMWSEEYQCAWLDMYHRVFDRVSAVVGEQVWNFADFATSQGILRVGGNKKGIFTRDRKPKSAAFLLQKRWTGMNFGEKPQQGGKQ light: MDIQMTQSPSSLSASVGDRVTITCSTSSSVSYMHWYQQKPGKAPKLLIYSTSNLASGVPSRFSGSGSGTDFTFTISSLQPEDIATYYCHQWSSYPTFGQGTKVEIKRTVAAPSVFIFPPSDEQLKSGTASVVCLLNNFYPREAKVQWKVDNALQSGNSQESVTEQDSKDSTYSLSSTLTLSKADYEKHKVYACEVTHQGLSSPVTKSFNRGEC,relative fluorescence units (FU),[1],7780 FU
same,relative fluorescence units (FU),[2],7570 FU
same,relative fluorescence units (FU),[3],6360 FU
same,relative fluorescence units (FU),[4],4240 FU
same,relative fluorescence units (FU),[5],1980 FU
same,relative fluorescence units (FU),[6],816 FU
same,relative fluorescence units (FU),[7],302 FU
same,relative fluorescence units (FU),[8],114 FU
same,relative fluorescence units (FU),[9],8180 FU
same,relative fluorescence units (FU),[10],8150 FU
same,relative fluorescence units (FU),[11],7530 FU
same,relative fluorescence units (FU),[12],6630 FU
same,relative fluorescence units (FU),[13],4560 FU
same,relative fluorescence units (FU),[14],2510 FU
same,relative fluorescence units (FU),[15],1020 FU
same,relative fluorescence units (FU),[16],422 FU
same,relative fluorescence units (FU),[17],74.7 FU
same,relative fluorescence units (FU),[18],173 FU
same,relative fluorescence units (FU),[19],90.2 FU
same,relative fluorescence units (FU),[20],52.3 FU
same,relative fluorescence units (FU),[21],38.8 FU
same,relative fluorescence units (FU),[22],25.8 FU
same,relative fluorescence units (FU),[23],23.5 FU
same,relative fluorescence units (FU),[24],19.4 FU
same,relative fluorescence units (FU),[25],6550 FU
same,relative fluorescence units (FU),[26],5230 FU
same,relative fluorescence units (FU),[27],3220 FU
same,relative fluorescence units (FU),[28],7900 FU
same,relative fluorescence units (FU),[29],8110 FU
same,relative fluorescence units (FU),[30],8040 FU
same,relative fluorescence units (FU),[31],1480 FU
same,relative fluorescence units (FU),[32],525 FU
same,relative fluorescence units (FU),[33],214 FU
same,relative fluorescence units (FU),[34],7150 FU
same,relative fluorescence units (FU),[35],5800 FU
same,relative fluorescence units (FU),[36],3620 FU
same,relative fluorescence units (FU),[37],86.2 FU
same,relative fluorescence units (FU),[38],46.3 FU
same,relative fluorescence units (FU),[39],1650 FU
same,relative fluorescence units (FU),[40],666 FU
